# Measurements from the supplement of paper PMC10065799, “High-throughput profiling of sequence recognition by tyrosine kinases and SH2 domains using bacterial peptide display” (eLife, 2023).
# Test system: c-Src
# Experiment: phosphorylation enrichment, bacterial display (enrichment ratio); higher = better substrate or ligand; peptides without Tyr show the background
# 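Throughout, for SH2 binding enrichment of the phosphorylated peptide, bacterial display: peptide library displayed on the E. coli surface as eCPX fusions, selected cells deep-sequenced, score is each peptide's frequency after selection divided by its frequency in the input.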
# 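Throughout, for phosphorylation enrichment, bacterial display: 11-residue human phosphosite peptides and single-mutation variants displayed on the E. coli surface, counted by deep sequencing, each peptide's frequency after selection divided by its frequency in the unselected input library; frequency after pTyr selection over input frequency; kinase dosed for 20-30% of maximal phosphorylation in three min.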
row,Sequence,phosphorylation enrichment
1,GFRVCYTPDSR [PTPRF_Y451_Y450C_YF],0.451
2,HEGKIYEFNQV [ZNF665_Y162_YF],4.38
3,RLSELYLRRNP [CFAP410_Y68_R73P],0.317
4,RRGTRYMFSRP [RPL21_Y13],0.922
5,FIILIYAMKKK [SLCO1B1_Y645_YF],0.32
6,LIEQAYDNPHE [PRPF8_Y871],0.472
7,FKNGDYSEVMK [LCT_Y1638_N1639S],0.574
8,IIEDPYYGNDF [ACP1_Y132_S137F],4.91
9,HTLMKYTDGDQ [PUS7L_Y94_I92M],0.788
10,VIKDKYPKAHF [APTX_Y209_R213H_YF],0.369
11,AGQEDYDRLRP [CDC42_Y64],0.452
12,GTVRDYPDFSP [ANXA3_Y15],0.372
13,SGPRCYTIAAL [TTR_Y125_R124C],0.399
14,YGGRDYSLDEF [MYOF_Y1705],0.594
15,SNKLTYGTMVF [ACOX1_Y275],4.65
16,EPTPGYEVSQR [TSC2_Y1788_G1791S],0.383
17,RKLASYRSCLL [DHX37_Y1080],0.486

row,Sequence,phosphorylation enrichment
1,QDLLLYQTHSE [PKHD1_Y255_F253L],1.77
2,GGRKGYGDFSR [RECQL5_Y478],0.418
3,KVFRVYQGQQP [MUTYH_Y494],0.375
4,LKLKAYRFSIS [LCT_Y974_V971L],1.55
5,GHLFAYDWIRI [BEST1_Y227_S231R_YF],0.941
6,AFPVSYSSSSA [RET_Y687_G691S],0.415
7,FIGCIYLYLTK [GARS1_Y414_R412C],0.704
8,GFEEAYSVSKK [PAFAH1B1_Y28_F31S_YF],0.65
9,FLLRVYSIFSK [SGCE_Y38_T36R],1.49
10,VGGRIYIDDGL [PKLR_Y218],0.493
11,MDYRSYPREYG [RBM10_Y44],0.319
12,EGELRYMHSRV [ABCD1_Y281_K276E],0.373
13,AIIGIYNLRDD [CDH23_Y2949_I2950N],5.84
14,KAIMTYVFSFY [ACTN4_Y260_S262F],0.507
15,TKAEKYVNKAK [PLCG1_Y991],0.443
16,PELIDYGKLWK [ACTN1_Y193_R197W],0.59

# Molecular target: SHP2-C SH2
# Experiment: SH2 binding enrichment of the phosphorylated peptide, bacterial display (enrichment ratio); higher = better substrate or ligand; peptides without Tyr show the background
row,Sequence,SH2 binding enrichment
1,GFRVCYTPDSR [PTPRF_Y451_Y450C_YF],0.687
2,HEGKIYEFNQV [ZNF665_Y162_YF],0.633
3,RLSELYLRRNP [CFAP410_Y68_R73P],0.303
4,RRGTRYMFSRP [RPL21_Y13],0.746
5,FIILIYAMKKK [SLCO1B1_Y645_YF],1.66
6,LIEQAYDNPHE [PRPF8_Y871],0.729
7,FKNGDYSEVMK [LCT_Y1638_N1639S],0.739
8,IIEDPYYGNDF [ACP1_Y132_S137F],0.488
9,HTLMKYTDGDQ [PUS7L_Y94_I92M],0.757
10,VIKDKYPKAHF [APTX_Y209_R213H_YF],1.01
11,AGQEDYDRLRP [CDC42_Y64],0.698
12,GTVRDYPDFSP [ANXA3_Y15],0.623
13,SGPRCYTIAAL [TTR_Y125_R124C],0.766
14,YGGRDYSLDEF [MYOF_Y1705],0.472
15,SNKLTYGTMVF [ACOX1_Y275],1.05
16,EPTPGYEVSQR [TSC2_Y1788_G1791S],0.629
17,RKLASYRSCLL [DHX37_Y1080],1.04

row,Sequence,SH2 binding enrichment
1,QDLLLYQTHSE [PKHD1_Y255_F253L],0.681
2,GGRKGYGDFSR [RECQL5_Y478],0.798
3,KVFRVYQGQQP [MUTYH_Y494],0.55
4,LKLKAYRFSIS [LCT_Y974_V971L],0.763
5,GHLFAYDWIRI [BEST1_Y227_S231R_YF],1.43
6,AFPVSYSSSSA [RET_Y687_G691S],0.586
7,FIGCIYLYLTK [GARS1_Y414_R412C],1.53
8,GFEEAYSVSKK [PAFAH1B1_Y28_F31S_YF],0.688
9,FLLRVYSIFSK [SGCE_Y38_T36R],1.84
10,VGGRIYIDDGL [PKLR_Y218],0.778
11,MDYRSYPREYG [RBM10_Y44],0.591
12,EGELRYMHSRV [ABCD1_Y281_K276E],0.513
13,AIIGIYNLRDD [CDH23_Y2949_I2950N],0.951
14,KAIMTYVFSFY [ACTN4_Y260_S262F],1.08
15,TKAEKYVNKAK [PLCG1_Y991],1.01
16,PELIDYGKLWK [ACTN1_Y193_R197W],0.989

# Molecular target: c-Src SH2
# Experiment: as above
row,Sequence,SH2 binding enrichment
1,GFRVCYTPDSR [PTPRF_Y451_Y450C_YF],0.444
2,HEGKIYEFNQV [ZNF665_Y162_YF],0.371
3,RLSELYLRRNP [CFAP410_Y68_R73P],0.352
4,RRGTRYMFSRP [RPL21_Y13],0.483
5,FIILIYAMKKK [SLCO1B1_Y645_YF],0.965
6,LIEQAYDNPHE [PRPF8_Y871],5.87
7,FKNGDYSEVMK [LCT_Y1638_N1639S],1.84
8,IIEDPYYGNDF [ACP1_Y132_S137F],0.726
9,HTLMKYTDGDQ [PUS7L_Y94_I92M],0.563
10,VIKDKYPKAHF [APTX_Y209_R213H_YF],0.766
11,AGQEDYDRLRP [CDC42_Y64],0.609
12,GTVRDYPDFSP [ANXA3_Y15],0.439
13,SGPRCYTIAAL [TTR_Y125_R124C],0.586
14,YGGRDYSLDEF [MYOF_Y1705],0.947
15,SNKLTYGTMVF [ACOX1_Y275],0.504
16,EPTPGYEVSQR [TSC2_Y1788_G1791S],0.56
17,RKLASYRSCLL [DHX37_Y1080],0.861

row,Sequence,SH2 binding enrichment
1,QDLLLYQTHSE [PKHD1_Y255_F253L],0.394
2,GGRKGYGDFSR [RECQL5_Y478],0.674
3,KVFRVYQGQQP [MUTYH_Y494],0.52
4,LKLKAYRFSIS [LCT_Y974_V971L],0.502
5,GHLFAYDWIRI [BEST1_Y227_S231R_YF],1.56
6,AFPVSYSSSSA [RET_Y687_G691S],0.524
7,FIGCIYLYLTK [GARS1_Y414_R412C],1.04
8,GFEEAYSVSKK [PAFAH1B1_Y28_F31S_YF],0.505
9,FLLRVYSIFSK [SGCE_Y38_T36R],1.51
10,VGGRIYIDDGL [PKLR_Y218],0.45
11,MDYRSYPREYG [RBM10_Y44],0.476
12,EGELRYMHSRV [ABCD1_Y281_K276E],0.432
13,AIIGIYNLRDD [CDH23_Y2949_I2950N],0.805
14,KAIMTYVFSFY [ACTN4_Y260_S262F],0.561
15,TKAEKYVNKAK [PLCG1_Y991],0.709
16,PELIDYGKLWK [ACTN1_Y193_R197W],0.538

# Molecular target: Grb2 SH2 (UniProt P62993)
# Experiment: as above
# Chain of Grb2 SH2 (P62993 whole entry, looked up): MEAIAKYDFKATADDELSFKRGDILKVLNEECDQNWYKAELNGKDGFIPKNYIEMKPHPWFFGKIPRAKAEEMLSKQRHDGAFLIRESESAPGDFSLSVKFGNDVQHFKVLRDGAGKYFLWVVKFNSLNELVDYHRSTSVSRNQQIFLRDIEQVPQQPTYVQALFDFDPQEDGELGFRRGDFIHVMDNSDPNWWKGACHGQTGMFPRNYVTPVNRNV
row,Sequence,SH2 binding enrichment
1,GFRVCYTPDSR [PTPRF_Y451_Y450C_YF],0.787
2,HEGKIYEFNQV [ZNF665_Y162_YF],0.82
3,RLSELYLRRNP [CFAP410_Y68_R73P],0.633
4,RRGTRYMFSRP [RPL21_Y13],0.599
5,FIILIYAMKKK [SLCO1B1_Y645_YF],1.83
6,LIEQAYDNPHE [PRPF8_Y871],0.828
7,FKNGDYSEVMK [LCT_Y1638_N1639S],1.11
8,IIEDPYYGNDF [ACP1_Y132_S137F],0.958
9,HTLMKYTDGDQ [PUS7L_Y94_I92M],0.794
10,VIKDKYPKAHF [APTX_Y209_R213H_YF],0.999
11,AGQEDYDRLRP [CDC42_Y64],0.825
12,GTVRDYPDFSP [ANXA3_Y15],0.732
13,SGPRCYTIAAL [TTR_Y125_R124C],0.808
14,YGGRDYSLDEF [MYOF_Y1705],0.765
15,SNKLTYGTMVF [ACOX1_Y275],0.925
16,EPTPGYEVSQR [TSC2_Y1788_G1791S],0.858
17,RKLASYRSCLL [DHX37_Y1080],1.04

row,Sequence,SH2 binding enrichment
1,QDLLLYQTHSE [PKHD1_Y255_F253L],0.726
2,GGRKGYGDFSR [RECQL5_Y478],1.15
3,KVFRVYQGQQP [MUTYH_Y494],0.849
4,LKLKAYRFSIS [LCT_Y974_V971L],0.673
5,GHLFAYDWIRI [BEST1_Y227_S231R_YF],1.66
6,AFPVSYSSSSA [RET_Y687_G691S],0.8
7,FIGCIYLYLTK [GARS1_Y414_R412C],1.51
8,GFEEAYSVSKK [PAFAH1B1_Y28_F31S_YF],1.01
9,FLLRVYSIFSK [SGCE_Y38_T36R],2.26
10,VGGRIYIDDGL [PKLR_Y218],0.909
11,MDYRSYPREYG [RBM10_Y44],0.752
12,EGELRYMHSRV [ABCD1_Y281_K276E],0.677
13,AIIGIYNLRDD [CDH23_Y2949_I2950N],1.14
14,KAIMTYVFSFY [ACTN4_Y260_S262F],0.987
15,TKAEKYVNKAK [PLCG1_Y991],0.89
16,PELIDYGKLWK [ACTN1_Y193_R197W],0.958
